Target: T1, human FSH (follicle stimulating hormone) (human, UniProt P01215 25-116; P01225 19-129)
T1 construct: also called purified human FSH; human FSH in PDB ID 4AY9
Assay: thermal shift assay (Sypro-Orange), antibody 1.5 µg/µL with or without human FSH 0.5 µg/µL
Method: Next, 215 different anti-FSH antibody formulations comprising different combinations of salt, detergent and sugars were tested for thermal stability. The thermal shift assay used a fluorescent reporter, Sypro-Orange (Protein Thermal Shift Dye Kit, ThermoFisher, Catalog #4461146), to detect hydrophobic domains that are exposed following the heat-induced unfolding of globular proteins. anti-FSH antibodies (1.5 μg/μL), either in a test formulation or in PBS, were incubated with or without human FSH (0.5 μg/μL) at room temperature for 30 minutes, with fluorescence captured sequentially at 0.3° C. increments using a StepOne Plus Thermocycler (Applied Biosystems). Tm was calculated based on the inflection point of the melt curve, and thermal shift was derived from ΔTₘ=TₘA−TₘB.
This testing yielded an anti-FSH antibody formulation comprising a stock solution of 2 mg/mL in 20 mM phosphate, 0.001% (v/v) Tween-20, 1 mM NaCl, and 260 mM sucrose (pH=6.58). […] The binding of formulated anti-FSH antibodies to purified human FSH was tested. A ΔTₘ of 3.1° C. of the Fab, and not the Fc region, established greater thermal stability due to FSH binding (FIG. 8C).

T1 sequence (P01215 25-116, chain 1 of 2): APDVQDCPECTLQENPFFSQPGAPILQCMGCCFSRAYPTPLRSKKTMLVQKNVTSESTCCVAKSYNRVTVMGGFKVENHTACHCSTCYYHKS
T1 sequence (P01225 19-129, chain 2 of 2): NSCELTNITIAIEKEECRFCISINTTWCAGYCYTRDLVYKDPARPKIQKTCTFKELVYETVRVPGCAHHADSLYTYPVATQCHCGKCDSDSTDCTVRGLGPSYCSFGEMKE

B1: humanized monoclonal anti-FSH antibody Hu6 (antibody, V domains shown)
VH: QVQLQESGPGLVKPSQTLSLTCTVSGFSITSDYAWNWIRQPPGKGLEWIGSIFSSGSINYNPSLKSRVTISRDTSKNQFSLKLSSVTAADTAVYYCARGGTGTDYWGQGTLVTVSS
VL: DIQMTQSPSSLSASVGDRVTITCRASQDISNYLSWYQQKPGKAIKLLIYYTSRLHSGVPSRFSGSGSGTDYTLTISSLQPEDFATYFCQQGHTLPPTFGGGTKVEIK
notes: also called MS-Hu6; formulated anti-FSH antibodies
ΔTm of the Fab region on FSH binding: 3.1 °C
